Drawing on US11293031B2, this text covers Km and Vmax for one substance.

The series relates to CN1CCC[C@H]1c1cccnc1. Nature of the series: cells, lysate or membranes named. The following applies: other: nicotine demethylase reaction, yeast microsomes, 25° C., pH 7.1, mean±standard error.

One may read the Km as the concentration of substrate that gives half-maximal velocity. Regarding NtabCYP82E5v2 (Nicotiana tabacum), the Km is 5.6 ± 1.4 µM and the Vmax stood at 0.7±0.02 nmol min^−1 mg^−1 protein.
